Laboratory results reported in the supplement of paper PMC10471632, “Protein engineering and iterative multimodule optimization for vitamin B6 production in Escherichia coli” (Nature Communications, 2023).
± gives the standard deviation of the averaged measurements.

B1: library; numbered along this chain (parent)
chain: MAELLLGVNIDHIATLRNARGTAYPDPVQAAFIAEQAGADGITVHLREDRRHITDRDVRILRQTLDTRMNLEMAVTEEMLAIAVETKPHFCCLVPEKRQEVTTEGGLDVAGQRDKMRDACKRLADAGIQVSLFIDADEEQIKAAAEVGAPFIEIHTGCYADAKTDAEQAQELARIAKAATFAASLGLKVNAGHGLTYHNVKAIAAIPEMHELNIGHAIIGRAVMTGLKDAVAEMKRLMLEARG

Variants of: B1
Test: pyridoxine titer in culture supernatant of strain expressing the PdxJ variant; higher = more PN produced (higher in vivo pathway activity of the PdxJ variant)
Details: host strain: E. coli LL006; 48 h; temperature: 37 °C; FM1.4
Experimental: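 Rosetta-designed single to quadruple mutants of E. coli PdxJ (PNP synthase) were expressed from pRSFDuet-1 in the engineered chassis E. coli LL006 (MG1655 ΔpdxH::pdxST, pta::Eme_pdxP). Strains were grown in 24 deep-well plates in 2 mL FM1.4 glycerol medium at 37 °C and 800 rpm for 48 h. Extracellular pyridoxine (PN) titer was quantified by HPLC with fluorescence detection; two biological replicates, with the WT pdxJ strain (LL137, about 0.5 mg/L) as control.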

| Variant | pyridoxine titer [mg/L] |
| --- | --- |
| MAELLLMVNIDHIATLRNARGTAYPDPVQAAFIAEQAGADGITVHLREDRRHITDRDVRILRQTLDTRMNLEMAVTEEMLAIAVETKPHFCCLVPEKRQEVTTTGGLDVAGQRDKMRDACKRLADAGIQVSLFIDADEEQIKAAAEVGAPFIEIHTGCYADAKTDAEQAQELARIAKAATFAASLGLKVNAGHCLTYHNVKAIAAIPEMHELNIGHALIGRAVMTGLKDAVAEMKRLMLEARG [G7M E104T G194C I218L] | 0.955 ± 0.033 |
| MAELLLLVNIDHIATLRNARGTAYPDPVQAAFIAEQAGADGITVHLREDRRHITDRDVRILRQTLDTRMNLEMAVTEEMLAIAVETKPHFCCLVPEKRQEVTTEGGLDVAGQRDKMRDACKRLADAGIQVSLFIDADEEQIKAAAEVGAPFIEIHTGCYADAKTDAEQAQELARIAKAATFAASLGLKVNAGHGLTYHNVKAIAAIPEMHELNIGHALIGRAVMTGLKDAVAEMKRLMLEARG [G7L I218L] | 0.76 |
| MAELLLLVNIDHIATLRNARGTAYPDPVQAAFIAEQAGADGITVHLREDRRHITDRDVRILRQTLDTRMNLEMAVTEEMLAIAVETKPHFCCLVPEKRQEVTTTGGLDVAGQRDKMRDACKRLADAGIQVSLFIDADEEQIKAAAEVGAPFIEIHTGCYADAKTDAEQAQELARIAKAATFAASLGLKVNAGHGLTYHNVKAIAAIPEMHELNIGHAIIGRAVMTGLKDAVAEMKRLMLEARG [G7L E104T] | 0.65 ± 0.014 |
| MAELLLGVNLDHIATLRNCRGTAYPDPVQAAFIAEQAGADGITVHLREDRRHITDRDVRILRQTLDTRMNLEMAVTEEMLAIAVETKPHFCCLVPEKRQELTTTGGLDVAGQRDKMRDACKRLADAGIQVSLFIDADEEQIKAAAEVGAPFIEIHTGCYADAKTDAEQAQELARIAKAATFAASLGLKVNAGHGLTYHNVKAIAAIPEMHELNIGHAIIGRAVMTGLKDAVAEMKRLMLEARG [I10L A19C V101L E104T] | 0.41 ± 0.019 |
| MAELLLGVNLDHIATLRNRRGVTYPDPVQAAFIAEQAGADGITVHLREDRRHITDRDVRILRQTLDTRMNLEMAVTEEMLAIAVETKPHFCCLVPEKRQEVTTEGGLDVAGQRDKMRDACKRLADAGIQVSLFIDADEEQIKAAAEVGAPFIEIHTGCYADAKTDAEQAQELARIAKAATFAASLGLKVNAGHGLTYHNVKAIAAIPEMHELNIGHAIIGRAVMTGLKDAVAEMKRLMLEARG [I10L A19R T22V A23T] | 0.561 ± 0.17 |
| MAELLLLVNIDHIATLRNARGTAYPDPVQAAFIAEQAGADGITVHLREDRRHITDRDVRILRQTLDTRMNLEMAVTEEMLAIAVETKPHFCCLVPEKRQEVTTEGGLDVAGQRDKMRDACKRLADAGIQVSLFIDADEEQIKAAAEVGAPFIEIHTGCYADAKTDAEQAQELARIAKAATFAASLGLKVNAGHGLTYHNVKAIAAIPEMHELIIGHAIIGRAVMTGLKDAVAEMKRLMLEARG [G7L N213I] | 0.6 ± 0.11 |
| MAELLLIVNIDHIATLRNARGTAYPDPVQAAFIAEQAGADGITVHLREDRRHITDRDVRILRQTLDTRMNLEMAVTEEMLAIAVETKPHFCCLVPEKRQEVTTTGGLDVAGQRDKMRDACKRLADAGIQVSLFIDADEEQIKAAAEVGAPFIEIHTGCYADAKTDAEQAQELARIAKAATFAASLGLKVNAGHCLTYHNVKAIAAIPEMHELNIGHALIGRAVMTGLKDAVAEMKRLMLEARG [G7I E104T G194C I218L] | 2.32 ± 0.19 |
| MAELLLGVNLDHIATLRNARGTTYPDPVQAAFIAEQAGADGITVHLREDRRHITDRDVRILRQTLDTRMNLEMAVTEEMLAIAVETKPHFCCLVPEKRQEVTLEGGLDVAGQRDKMRDACKRLADAGIQVSLFIDADEEQIKAAAEVGAPFIEIHTGCYADAKTDAEQAQELARIAKAATFAASLGLKVNAGHGLTYHNVKAIAAIPEMHELNIGHAIIGRAVMTGLKDAVAEMKRLMLEARG [I10L A23T T103L] | 0.24 |
| MAELLLGVNLDHIATLRNARGTTYPDPVQAAFIAEQAGADGITVHLREDRRHITDRDVRILRQTLDTRMNLEMAVTEEMLAIAVETKPHFCCLVPEKRQEVTTTGGLDVAGQRDKMRDACKRLADAGIQVSLFIDADEEQIKAAAEVGAPFIEIHTGCYADAKTDAEQAQELARIAKAATFAASLGLKVNAGHGLTYHNVKAIAAIPEMHELNIGHAIIGRAVMTGLKDAVAEMKRLMLEARG [I10L A23T E104T] | 6.49 ± 0.071 |
| MAELLLGVNLDHIATLRNLRGTTYPDPVQAAFIAEQAGADGITVHLREDRRHITDRDVRILRQTLDTRMNLEMAVTEEMLAIAVETKPHFCCLVPEKRQEVTTEGGLDVAGQRDKMRDACKRLADAGIQVSLFIDADEEQIKAAAEVGAPFIEIHTGCYADAKTDAEQAQELARIAKAATFAASLGLKVNAGHGLTYHNVKAIAAIPEMHELNIGHAIIGRAVMTGLKDAVAEMKRLMLEARG [I10L A19L A23T] | 0.2 ± 0.028 |
| MAELLLLVNIDHIATLRNARGTAYPDPVQAAFIAEQAGADGITVHLREDRRHITDRDVRILRQTLDTRMNLEMAVTEEMLAIAVETKPHFCCLVPEKRQEVTTEGGLDVAGQRDKMRDACKRLADAGIQVSLFIDADEEQIKAAAEVGAPFIELHTGCYADAKTDAEQAQELARIAKAATFAASLGLKVNAGHGLTYHNVKAIAAIPEMHELNIGHAIIGRAVMTGLKDAVAEMKRLMLEARG [G7L I154L] | 0.82 ± 0.68 |
| MAELLLGVNLDHIATLRNARGTTYPDPVQAAFIAEQAGADGITVHLREDRRHITDRDVRILRQTLDTRMNLEMAVTEEMLAIAVETKPHFCCLVPEKRQEVTTEGGLDVAGQRDKMRDACKRLADAGIQVSLFIDADEEQIKAAAEVGAPFIEIHTGCYADAKTDAEQAQELARIAKAATFAASLGLKVNAGHGLTYHNVKAIAAIPEMHELNIGHAIIGRAVMTGLKDAVAEMKRLMLEARG [I10L A23T] | 1.39 ± 0.2 |
